# From patent US20190169269
# T1: recombinant human tropoelastin (hTE) (Sigma-Aldrich), P15502
# T1 chain: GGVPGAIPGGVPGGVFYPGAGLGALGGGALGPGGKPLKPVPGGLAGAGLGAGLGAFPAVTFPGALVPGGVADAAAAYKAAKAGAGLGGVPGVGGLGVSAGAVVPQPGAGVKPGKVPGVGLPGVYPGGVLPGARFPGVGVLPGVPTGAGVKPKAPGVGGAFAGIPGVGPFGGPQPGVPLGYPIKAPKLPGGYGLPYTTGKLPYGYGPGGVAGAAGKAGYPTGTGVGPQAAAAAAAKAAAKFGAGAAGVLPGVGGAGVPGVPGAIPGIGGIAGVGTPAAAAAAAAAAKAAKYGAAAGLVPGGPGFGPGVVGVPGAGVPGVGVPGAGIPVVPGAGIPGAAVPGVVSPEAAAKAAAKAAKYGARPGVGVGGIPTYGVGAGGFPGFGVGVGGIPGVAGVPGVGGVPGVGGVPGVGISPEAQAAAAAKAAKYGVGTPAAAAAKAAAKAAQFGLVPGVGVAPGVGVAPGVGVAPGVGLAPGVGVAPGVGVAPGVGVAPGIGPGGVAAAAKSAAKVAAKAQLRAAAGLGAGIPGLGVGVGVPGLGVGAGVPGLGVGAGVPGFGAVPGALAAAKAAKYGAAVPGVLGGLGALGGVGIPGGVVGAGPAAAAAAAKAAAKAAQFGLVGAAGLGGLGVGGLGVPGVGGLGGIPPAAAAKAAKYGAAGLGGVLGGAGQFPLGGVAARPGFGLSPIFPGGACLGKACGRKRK
# T2: Elactiv′ polypeptide (polypeptide derived from tropoelastin, Cys-Flag-tagged)
# T2 chain: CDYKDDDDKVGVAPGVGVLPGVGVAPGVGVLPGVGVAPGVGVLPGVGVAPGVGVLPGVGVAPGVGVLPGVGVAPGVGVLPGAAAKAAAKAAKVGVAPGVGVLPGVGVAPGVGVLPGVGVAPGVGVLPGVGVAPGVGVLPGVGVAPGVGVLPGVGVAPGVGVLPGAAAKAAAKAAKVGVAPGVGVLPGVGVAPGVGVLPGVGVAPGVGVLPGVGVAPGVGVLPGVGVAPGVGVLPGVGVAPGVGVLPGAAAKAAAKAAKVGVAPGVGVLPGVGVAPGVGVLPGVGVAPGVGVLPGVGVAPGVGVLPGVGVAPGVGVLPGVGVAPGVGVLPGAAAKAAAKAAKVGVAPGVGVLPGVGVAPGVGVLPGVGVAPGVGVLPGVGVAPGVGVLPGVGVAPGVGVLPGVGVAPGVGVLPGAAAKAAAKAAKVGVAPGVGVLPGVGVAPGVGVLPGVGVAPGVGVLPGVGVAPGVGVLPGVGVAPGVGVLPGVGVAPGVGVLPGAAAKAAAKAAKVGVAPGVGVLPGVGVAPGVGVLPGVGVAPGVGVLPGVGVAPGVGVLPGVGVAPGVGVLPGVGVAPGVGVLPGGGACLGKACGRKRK
# B1: recombinant human MMP-12 (protein)
# chain: GPVWRKHYITYRINNYTPDMNREDVDYAIRKAFQVWSNVTPLKFSKINTGMADILVVFARGAHGDFHAFDGKGGILAHAFGPGSGIGGDAHFDEDEFWTTHSGGTNLFLTAVHEIGHSLGLGHSSDPKAVMFPTYKYVDINTFRLSADDIRGIQSLYGDPKENQRLPNPDNSEPALCDPNLSFDAVTTVGNKIFFFKDRFFWLKVSERPKTSVNLISSLWPTLPSGIEAAYEIEARNQVFLFKDDKYWLISNLRPEPNYPKSIHSFGFPNFVKKIDAAVFNPRFYRTYFFVDNQYWRYDERRQMMDPGYPKLITKNFQGIGPKIDAVFYSKNKYYYFFQGSNQFEYDFLLQRITKTLKSNSWFGC
# Tests used:
# [1] = target: T1, recombinant human tropoelastin (hTE) …
# [2] = target: T2, Elactiv′ polypeptide (polypeptide …)
protein,measurement,setting,value
B1,"kinetics of degradation by rhMMP-12, Western blot",[1],"Elactiv′ is progressively degraded by MMP-12, but to a lesser extent than human tropoelastin"
same,"kinetics of degradation by rhMMP-12, Western blot",[2],"Elactiv′ is progressively degraded by MMP-12, but to a lesser extent than human tropoelastin"
